# Assay results: paper PMC10397247
# Tests used:
# Assay in all cases: two-hybrid library CCNG1;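 note: natural log of median RNA to DNA barcode read ratio; higher means stronger binding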
# [1] = molecular target: T1, 4H918-bN
# T1 chain: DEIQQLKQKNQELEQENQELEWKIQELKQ
# [2] = molecular target: T2, 4H331-bN
# T2 chain: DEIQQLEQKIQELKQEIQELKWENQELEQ
# [3] = molecular target: T3, 4H3354-bN
# T3 chain: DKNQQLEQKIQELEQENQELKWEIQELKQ
# [4] = molecular target: T4, 4H717-bN
# T4 chain: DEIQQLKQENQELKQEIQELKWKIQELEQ
# [5] = molecular target: T5, 4H607-bN
# T5 chain: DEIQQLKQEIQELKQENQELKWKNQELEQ
# [6] = molecular target: T6, 4H908-bN
# T6 chain: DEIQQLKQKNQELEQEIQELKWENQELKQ
# [7] = molecular target: T7, 4H3185-bN
# T7 chain: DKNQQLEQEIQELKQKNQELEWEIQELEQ
# [8] = molecular target: T8, 4H797-bN
# T8 chain: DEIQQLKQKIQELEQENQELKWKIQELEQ
# [9] = molecular target: T9, 4H953-bN
# T9 chain: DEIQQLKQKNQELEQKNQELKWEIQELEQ
# [10] = molecular target: T10, 4H568-bN
# T10 chain: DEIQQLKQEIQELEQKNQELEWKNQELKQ
# [11] = molecular target: T11, 4H3427-bN
# T11 chain: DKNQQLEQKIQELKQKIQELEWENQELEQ
# [12] = molecular target: T12, 4H967-bN
# T12 chain: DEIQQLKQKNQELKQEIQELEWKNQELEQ
# [13] = molecular target: T13, 4H338-bN
# T13 chain: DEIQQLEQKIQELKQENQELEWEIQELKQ
# [14] = molecular target: T14, 4H754-bN
# T14 chain: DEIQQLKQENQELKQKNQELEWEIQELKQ
# [15] = molecular target: T15, 4H72-bN
# T15 chain: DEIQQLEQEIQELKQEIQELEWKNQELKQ
# [16] = molecular target: T16, P9SHb
# T16 chain: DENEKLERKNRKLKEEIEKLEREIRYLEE
# [17] = molecular target: T17, 4H3782-bN
# T17 chain: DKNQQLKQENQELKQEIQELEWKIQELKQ
# [18] = molecular target: T18, 4H883-bN
# T18 chain: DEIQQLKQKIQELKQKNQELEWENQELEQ
# [19] = molecular target: T19, 4H687-bN
# T19 chain: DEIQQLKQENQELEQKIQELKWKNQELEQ
# [20] = molecular target: T20, P4mS
# T20 chain: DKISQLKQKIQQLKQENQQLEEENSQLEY
# [21] = molecular target: T21, 4H4001-bN
# T21 chain: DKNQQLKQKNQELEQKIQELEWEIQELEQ
# [22] = molecular target: T22, 4H454-bN
# T22 chain: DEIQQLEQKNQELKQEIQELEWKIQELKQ
# [23] = molecular target: T23, 4H3855-bN
# T23 chain: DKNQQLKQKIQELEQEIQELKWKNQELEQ
# [24] = molecular target: T24, 4H3613-bN
# T24 chain: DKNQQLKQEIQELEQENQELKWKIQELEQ
# [25] = molecular target: T25, 4H3162-bN
# T25 chain: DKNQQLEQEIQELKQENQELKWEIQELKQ
# [26] = molecular target: T26, 4H3628-bN
# T26 chain: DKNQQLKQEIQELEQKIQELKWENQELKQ
# [27] = molecular target: T27, 4H3926-bN
# T27 chain: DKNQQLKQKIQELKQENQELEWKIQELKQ
# [28] = molecular target: T28, 4H3817-bN
# T28 chain: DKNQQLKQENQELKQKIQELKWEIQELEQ
# [29] = molecular target: T29, 4H1373-bN
# T29 chain: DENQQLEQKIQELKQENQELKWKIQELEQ
# [30] = molecular target: T30, 4H3497-bN
# T30 chain: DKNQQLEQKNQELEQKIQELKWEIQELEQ
# [31] = molecular target: T31, 4H1985-bN
# T31 chain: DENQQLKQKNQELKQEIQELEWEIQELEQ
# [32] = molecular target: T32, 4H626-bN
# T32 chain: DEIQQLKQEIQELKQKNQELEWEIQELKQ
# [33] = molecular target: T33, 4H3858-bN
# T33 chain: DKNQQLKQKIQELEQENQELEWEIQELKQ
# [34] = molecular target: T34, 4H1449-bN
# T34 chain: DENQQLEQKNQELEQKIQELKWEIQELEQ
# [35] = molecular target: T35, 4H3175-bN
# T35 chain: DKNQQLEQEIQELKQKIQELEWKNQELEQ
# [36] = molecular target: T36, 4H1544-bN
# T36 chain: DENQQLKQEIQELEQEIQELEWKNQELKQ
# [37] = molecular target: T37, 4H2697-bH
# T37 chain: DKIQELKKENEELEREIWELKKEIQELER
# [38] = molecular target: T38, 4H570-bN
# T38 chain: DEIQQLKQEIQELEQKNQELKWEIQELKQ
# [39] = molecular target: T39, 4H906-bN
# T39 chain: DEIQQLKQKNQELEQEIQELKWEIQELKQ
# [40] = molecular target: T40, 4H591-bN
# T40 chain: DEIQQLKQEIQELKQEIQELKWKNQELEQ
# [41] = molecular target: T41, 4H1899-bN
# T41 chain: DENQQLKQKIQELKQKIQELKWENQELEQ
# [42] = molecular target: T42, 4H3462-bN
# T42 chain: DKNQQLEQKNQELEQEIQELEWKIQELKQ
# [43] = molecular target: T43, 4H3974-bN
# T43 chain: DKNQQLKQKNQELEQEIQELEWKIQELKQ
# [44] = molecular target: T44, 4H3298-bN
# T44 chain: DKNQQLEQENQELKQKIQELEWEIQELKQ
# [45] = molecular target: T45, 4H850-bN
# T45 chain: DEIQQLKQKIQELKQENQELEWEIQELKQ
# [46] = molecular target: T46, 4H1710-bN
# T46 chain: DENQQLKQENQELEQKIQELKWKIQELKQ
# [47] = molecular target: T47, 4H3277-bN
# T47 chain: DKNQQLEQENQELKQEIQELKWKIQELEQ
# [48] = molecular target: T48, 4H338-bH
# T48 chain: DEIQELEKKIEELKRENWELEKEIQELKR
binder,measurement,setting,value
DKNQQLEQEIQELKQKNQELEWEIQELEQ [4H3185-bN],interaction score,[1],-1.19
same,interaction score,[2],-2.02
same,interaction score,[3],-0.593
same,interaction score,[4],-0.903
same,interaction score,[5],-0.581
same,interaction score,[6],-0.952
same,interaction score,[7],-1.05
same,interaction score,[8],-0.638
same,interaction score,[9],-1.45
same,interaction score,[10],-2.82
same,interaction score,[11],-0.99
same,interaction score,[12],-2.19
same,interaction score,[13],-1.14
same,interaction score,[14],-0.979
same,interaction score,[15],-2.24
same,interaction score,[16],-0.815
same,interaction score,[17],-0.997
same,interaction score,[18],-1.12
same,interaction score,[19],-2.77
same,interaction score,[20],-0.366
same,interaction score,[21],-1.46
same,interaction score,[22],-2.08
same,interaction score,[23],-1.23
DENQQLEQKIQELKQENQELKWKIQELEQ [4H1373-bN],interaction score,[24],1.13
same,interaction score,[25],-0.675
same,interaction score,[26],-0.846
same,interaction score,[27],1.21
same,interaction score,[28],-0.749
same,interaction score,[29],-0.169
same,interaction score,[30],-1.41
same,interaction score,[31],-1.63
same,interaction score,[32],-0.375
same,interaction score,[33],0.337
same,interaction score,[34],-0.869
same,interaction score,[35],-0.941
same,interaction score,[36],-0.522
same,interaction score,[15],-2.48
same,interaction score,[37],-2.86
same,interaction score,[38],-1.29
same,interaction score,[39],-1.37
same,interaction score,[40],-0.619
same,interaction score,[41],-1.32
same,interaction score,[42],-0.946
same,interaction score,[43],-0.592
same,interaction score,[44],-0.763
same,interaction score,[45],-0.952
same,interaction score,[46],-0.292
same,interaction score,[47],-1.18
same,interaction score,[48],-0.758
